{"source": "IntAct's records for PubMed 31515488", "parents": {"B1": {"name": "Centrosomal protein POC5 (Homo sapiens), Q8NA72 (parent)", "chain": "MSSDEEKYSLPVVQNDSSRGSSVSSNLQEEYEELLHYAIVTPNIEPCASQSSHPKGELVPDVRISTIHDILHSQGNNSEVRETAIEVGKGCDFHISSHSKTDESSPVLSPRKPSHPVMDFFSSHLLADSSSPATNSSHTDAHEILVSDFLVSDENLQKMENVLDLWSSGLKTNIISELSKWRLNFIDWHRMEMRKEKEKHAAHLKQLCNQINELKELQKTFEISIGRKDEVISSLSHAIGKQKEKIELMRTFFHWRIGHVRARQDVYEGKLADQYYQRTLLKKVWKVWRSVVQKQWKDVVERACQARAEEVCIQISNDYEAKVAMLSGALENAKAEIQRMQHEKEHFEDSMKKAFMRGVCALNLEAMTIFQNRNDAGIDSTNNKKEEYGPGVQGKEHSAHLDPSAPPMPLPVTSPLLPSPPAAVGGASATAVPSAASMTSTRAASASSVHVPVSALGAGSAATAASEEMYVPRVVTSAQQKAGRTITARITGRCDFASKNRISSSLAIMGVSPPMSSVVVEKHHPVTVQTIPQATAAKYPRTIHPESSTSASRSLGTRSAHTQSLTSVHSIKVVD", "partner": "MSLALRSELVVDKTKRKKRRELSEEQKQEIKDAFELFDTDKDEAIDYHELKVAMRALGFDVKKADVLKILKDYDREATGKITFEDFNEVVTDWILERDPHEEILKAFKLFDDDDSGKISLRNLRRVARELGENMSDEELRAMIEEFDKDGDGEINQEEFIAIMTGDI"}, "B2": {"name": "Tuftelin-interacting protein 11 (Homo sapiens), Q9UBB9 (parent)", "chain": "MSLSHLYRDGEGRIDDDDDERENFEITDWDLQNEFNPNRQRHWQTKEEATYGVWAERDSDDERPSFGGKRARDYSAPVNFISAGLKKGAAEEAELEDSDDEEKPVKQDDFPKDFGPRKLKTGGNFKPSQKGFAGGTKSFMDFGSWERHTKGIGQKLLQKMGYVPGRGLGKNAQGIINPIEAKQRKGKGAVGAYGSERTTQSMQDFPVVDSEEEAEEEFQKELSQWRKDPSGSKKKPKYSYKTVEELKAKGRISKKLTAPQKELSQVKVIDMTGREQKVYYSYSQISHKHNVPDDGLPLQSQQLPQSGKEAKAPGFALPELEHNLQLLIDLTEQEIIQNDRQLQYERDMVVNLFHELEKMTEVLDHEERVISNLSKVLEMVEECERRMQPDCSNPLTLDECARIFETLQDKYYEEYRMSDRVDLAVAIVYPLMKEYFKEWDPLKDCTYGTEIISKWKSLLENDQLLSHGGQDLSADAFHRLIWEVWMPFVRNIVTQWQPRNCDPMVDFLDSWVHIIPVWILDNILDQLIFPKLQKEVENWNPLTDTVPIHSWIHPWLPLMQARLEPLYSPIRSKLSSALQKWHPSDSSAKLILQPWKDVFTPGSWEAFMVKNIVPKLGMCLGELVINPHQQHMDAFYWVIDWEGMISVSSLVGLLEKHFFPKWLQVLCSWLSNSPNYEEITKWYLGWKSMFSDQVLAHPSVKDKFNEALDIMNRAVSSNVGAYMQPGARENIAYLTHTERRKDFQYEAMQERREAENMAQRGIGVAASSVPMNFKDLIETKAEEHNIVFMPVIGKRHEGKQLYTFGRIVIYIDRGVVFVQGEKTWVPTSLQSLIDMAK", "partner": "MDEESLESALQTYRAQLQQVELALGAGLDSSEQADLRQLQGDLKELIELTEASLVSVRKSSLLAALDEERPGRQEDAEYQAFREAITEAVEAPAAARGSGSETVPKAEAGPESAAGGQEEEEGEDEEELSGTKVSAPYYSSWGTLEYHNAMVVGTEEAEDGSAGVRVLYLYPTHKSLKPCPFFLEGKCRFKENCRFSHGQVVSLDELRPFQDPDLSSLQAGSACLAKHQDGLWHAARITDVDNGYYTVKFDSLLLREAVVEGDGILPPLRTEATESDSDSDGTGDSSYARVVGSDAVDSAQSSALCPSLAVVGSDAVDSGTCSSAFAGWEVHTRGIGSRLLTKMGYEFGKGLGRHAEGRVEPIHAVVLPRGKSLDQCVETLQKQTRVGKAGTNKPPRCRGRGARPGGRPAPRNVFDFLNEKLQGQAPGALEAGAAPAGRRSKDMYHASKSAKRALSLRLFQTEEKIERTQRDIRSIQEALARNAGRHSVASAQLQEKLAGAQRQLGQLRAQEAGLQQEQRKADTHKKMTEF"}, "B3": {"name": "Pleckstrin homology domain-containing family N member 1 (Homo sapiens), Q494U1 (parent)", "chain": "MGNSHCVPQAPRRLRASFSRKPSLKGNREDSARMSAGLPGPEAARSGDAAANKLFHYIPGTDILDLENQRENLEQPFLSVFKKGRRRVPVRNLGKVVHYAKVQLRFQHSQDVSDCYLELFPAHLYFQAHGSEGLTFQGLLPLTELSVCPLEGSREHAFQITGPLPAPLLVLCPSRAELDRWLYHLEKQTALLGGPRRCHSAPPQRRLTRLRTASGHEPGGSAVCASRVKLQHLPAQEQWDRLLVLYPTSLAIFSEELDGLCFKGELPLRAVHINLEEKEKQIRSFLIEGPLINTIRVVCASYEDYGHWLLCLRAVTHREGAPPLPGAESFPGSQVMGSGRGSLSSGGQTSWDSGCLAPPSTRTSHSLPESSVPSTVGCSSQHTPDQANSDRASIGRRRTELRRSGSSRSPGSKARAEGRGPVTPLHLDLTQLHRLSLESSPDAPDHTSETSHSPLYADPYTPPATSHRRVTDVRGLEEFLSAMQSARGPTPSSPLPSVPVSVPASDPRSCSSGPAGPYLLSKKGALQSRAAQRHRGSAKDGGPQPPDAPQLVSSAREGSPEPWLPLTDGRSPRRSRDPGYDHLWDETLSSSHQKCPQLGGPEASGGLVQWI"}, "B4": {"name": "ADP-ribosylation factor-like protein 11 (Homo sapiens), Q969Q4 (parent)", "chain": "MGSVNSRGHKAEAQVVMMGLDSAGKTTLLYKLKGHQLVETLPTVGFNVEPLKAPGHVSLTLWDVGGQAPLRASWKDYLEGTDILVYVLDSTDEARLPESAAELTEVLNDPNMAGVPFLVLANKQEAPDALPLLKIRNRLSLERFQDHCWELRGCSALTGEGLPEALQSLWSLLKSRSCMCLQARAHGAERGDSKRS", "partner": "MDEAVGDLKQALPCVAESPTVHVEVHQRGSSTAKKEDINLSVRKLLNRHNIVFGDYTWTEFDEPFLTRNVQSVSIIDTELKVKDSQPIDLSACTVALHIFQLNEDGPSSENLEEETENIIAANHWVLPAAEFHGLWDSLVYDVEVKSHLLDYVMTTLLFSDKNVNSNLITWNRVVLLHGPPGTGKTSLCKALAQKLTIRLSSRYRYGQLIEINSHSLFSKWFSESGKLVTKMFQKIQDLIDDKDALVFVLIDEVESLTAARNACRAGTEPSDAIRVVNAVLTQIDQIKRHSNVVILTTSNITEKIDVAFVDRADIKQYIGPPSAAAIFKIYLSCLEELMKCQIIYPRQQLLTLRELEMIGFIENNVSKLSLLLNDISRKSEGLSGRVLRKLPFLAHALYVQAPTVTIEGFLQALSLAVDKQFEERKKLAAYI"}, "B5": {"name": "Zinc finger protein with KRAB and SCAN domains 4 (Homo sapiens), Q969J2 (parent)", "chain": "MAREPRKNAALDAQSAEDQTGLLTVKVEKEEASALTAEVRAPCSPARGPERSRQRFRGFRYPEAAGPREALSRLRELCGQWLQPEMHSKEQILELLVLEQFLTILPGNLQSWVREQHPESGEEVVVLLEYLERQLDEPAPQVPVGDQGQELLCCKMALLTQTQGSQSSQCQPMKALFKHESLGSQPLHDRVLQVPGLAQGGCCREDAMVASRLTPGSQGLLKMEDVALTLTPGWTQLDSSQVNLYRDEKQENHSSLVSLGGEIQTKSRDLPPVKKLPEKEHGKICHLREDIAQIPTHAEAGEQEGRLQRKQKNAIGSRRHYCHECGKSFAQSSGLTKHRRIHTGEKPYECEDCGKTFIGSSALVIHQRVHTGEKPYECEECGKVFSHSSNLIKHQRTHTGEKPYECDDCGKTFSQSCSLLEHHKIHTGEKPYQCNMCGKAFRRNSHLLRHQRIHGDKNVQNPEHGESWESQGRTESQWENTEAPVSYKCNECERSFTRNRSLIEHQKIHTGEKPYQCDTCGKGFTRTSYLVQHQRSHVGKKTLSQ"}, "B6": {"name": "Pleckstrin homology domain-containing family N member 1 (Homo sapiens), Q494U1 (parent)", "chain": "B3 chain", "partner": "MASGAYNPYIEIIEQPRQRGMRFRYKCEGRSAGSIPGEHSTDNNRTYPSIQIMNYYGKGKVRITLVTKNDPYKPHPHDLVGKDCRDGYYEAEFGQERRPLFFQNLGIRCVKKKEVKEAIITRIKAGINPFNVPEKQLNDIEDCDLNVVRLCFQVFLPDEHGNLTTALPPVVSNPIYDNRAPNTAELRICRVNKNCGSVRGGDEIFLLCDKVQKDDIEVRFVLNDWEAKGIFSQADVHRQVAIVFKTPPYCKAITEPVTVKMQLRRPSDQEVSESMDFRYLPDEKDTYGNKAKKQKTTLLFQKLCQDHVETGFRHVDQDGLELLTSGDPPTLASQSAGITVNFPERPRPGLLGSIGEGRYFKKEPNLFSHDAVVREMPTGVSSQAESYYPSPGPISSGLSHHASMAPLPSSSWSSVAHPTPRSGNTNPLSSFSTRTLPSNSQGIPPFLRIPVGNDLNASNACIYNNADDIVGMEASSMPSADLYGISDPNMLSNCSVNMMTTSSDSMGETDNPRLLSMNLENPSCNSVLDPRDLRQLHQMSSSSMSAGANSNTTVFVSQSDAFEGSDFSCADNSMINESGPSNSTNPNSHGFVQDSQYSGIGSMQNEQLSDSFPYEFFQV"}, "B7": {"name": "Vesicle transport through interaction with t-SNAREs homolog 1B (Homo sapiens), Q9UEU0 (parent)", "chain": "MASSAASSEHFEKLHEIFRGLHEDLQGVPERLLGTAGTEEKKKLIRDFDEKQQEANETLAEMEEELRYAPLSFRNPMMSKLRNYRKDLAKLHREVRSTPLTATPGGRGDMKYGIYAVENEHMNRLQSQRAMLLQGTESLNRATQSIERSHRIATETDQIGSEIIEELGEQRDQLERTKSRLVNTSENLSKSRKILRSMSRKVTTNKLLLSIIILLELAILGGLVYYKFFRSH", "partner": "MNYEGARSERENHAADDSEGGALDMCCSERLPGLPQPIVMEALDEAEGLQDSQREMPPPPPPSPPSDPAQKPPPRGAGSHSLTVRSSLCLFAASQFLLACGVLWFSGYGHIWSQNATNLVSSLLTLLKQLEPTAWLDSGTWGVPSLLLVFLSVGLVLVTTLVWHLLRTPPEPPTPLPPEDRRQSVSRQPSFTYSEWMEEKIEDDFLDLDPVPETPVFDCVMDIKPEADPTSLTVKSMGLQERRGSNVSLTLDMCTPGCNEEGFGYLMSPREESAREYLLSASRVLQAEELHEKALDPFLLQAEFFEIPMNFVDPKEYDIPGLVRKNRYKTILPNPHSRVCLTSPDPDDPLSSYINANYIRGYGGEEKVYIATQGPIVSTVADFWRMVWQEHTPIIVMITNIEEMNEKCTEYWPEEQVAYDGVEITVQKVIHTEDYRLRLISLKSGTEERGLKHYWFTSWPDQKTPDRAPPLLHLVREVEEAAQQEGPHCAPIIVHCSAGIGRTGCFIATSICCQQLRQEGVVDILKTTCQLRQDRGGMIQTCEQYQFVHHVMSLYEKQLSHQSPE"}}, "data": [{"variants_of": "B1", "conditions": "with cetn3_human CETN3, O15182", "values": [{"variant": "H36R", "effect of a mutation on the interaction": "with no effect"}]}, {"variants_of": "B2", "conditions": "with zgpat_human ZGPAT", "values": [{"variant": "S688L", "effect of a mutation on the interaction": "with no effect"}, {"variant": "R8Q", "effect of a mutation on the interaction": "with no effect"}]}, {"variants_of": "B3", "conditions": "with itf2_human TCF4, P15884", "values": [{"variant": "R487P", "effect of a mutation on the interaction": "with no effect"}]}, {"variants_of": "B3", "conditions": "with traf1_human TRAF1, Q13077", "values": [{"variant": "R487P", "effect of a mutation on the interaction": "with no effect"}]}, {"variants_of": "B3", "conditions": "with taxb1_human TAX1BP1, Q86VP1", "values": [{"variant": "R487P", "effect of a mutation on the interaction": "with no effect"}]}, {"variants_of": "B4", "conditions": "with pch2_human TRIP13, Q15645", "values": [{"variant": "C148R", "effect of a mutation on the interaction": "with no effect"}]}, {"variants_of": "B5", "conditions": "with zsc32_human ZSCAN32, Q9NX65", "values": [{"variant": "G79R", "effect of a mutation on the interaction": "with no effect"}]}, {"variants_of": "B5", "conditions": "with zksc7_human ZKSCAN7, Q9P0L1", "values": [{"variant": "G79R", "effect of a mutation on the interaction": "with no effect"}]}, {"variants_of": "B5", "conditions": "with znf24_human ZNF24, P17028", "values": [{"variant": "G79R", "effect of a mutation on the interaction": "disrupting interaction strength"}]}, {"variants_of": "B5", "conditions": "with zn496_human ZNF496, Q96IT1", "values": [{"variant": "G79R", "effect of a mutation on the interaction": "with no effect"}]}, {"variants_of": "B6", "conditions": "with rel_human REL", "values": [{"variant": "R487P", "effect of a mutation on the interaction": "with no effect"}]}, {"variants_of": "B7", "conditions": "with ptn5_human PTPN5, P54829", "values": [{"variant": "R124Q", "effect of a mutation on the interaction": "with no effect"}]}]}
